Each block holds one binder with its values, some of them ahead of it. Numbered stars: 1 amine (or outer) side, 2 acyl side, 3 side chain; on linkers, the order of the positions; unused ones are H or OH. Bridge positions count the residues as written; N and C are the ends. Side chains are listed from the residue outwards. Ends that are not written are not given here. * marks the point of attachment. C20 diacid = O=C(O)CCCCCCCCCCCCCCCCCCC(=O)*; γGlu = O=C(O)[C@H](CCC(=O)[*:2])N[*:1]; AEEA = NCCOCCOCC(=O)O
How the values were obtained:
rat calcitonin receptor [1] = target: T1, rat calcitonin receptor (rat, UniProt P32214 25-516); test: ratio of binding IC50s: rat calcitonin receptor over rat amylin receptor (reference)
T1 construct: whole, on cells; also called rCTR; rat calcitonin (a) receptor
T1 sequence (looked up): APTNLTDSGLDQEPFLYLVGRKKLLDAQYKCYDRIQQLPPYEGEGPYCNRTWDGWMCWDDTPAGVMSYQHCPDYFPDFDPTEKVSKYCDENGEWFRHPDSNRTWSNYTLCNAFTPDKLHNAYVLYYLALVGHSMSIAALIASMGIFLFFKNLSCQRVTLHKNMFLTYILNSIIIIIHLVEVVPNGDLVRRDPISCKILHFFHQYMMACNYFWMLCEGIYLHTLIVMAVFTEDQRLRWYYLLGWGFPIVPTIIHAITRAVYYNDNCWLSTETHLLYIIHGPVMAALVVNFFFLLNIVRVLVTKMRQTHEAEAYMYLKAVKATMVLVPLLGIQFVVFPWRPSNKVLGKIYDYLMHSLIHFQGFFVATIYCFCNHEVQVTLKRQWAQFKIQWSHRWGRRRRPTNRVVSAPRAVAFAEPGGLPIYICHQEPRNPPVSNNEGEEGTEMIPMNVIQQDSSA

[2] = target: T2, human calcitonin receptor (human, UniProt P30988 25-474); test: ratio of binding IC50s: human calcitonin receptor over human amylin receptor (reference)
T2 construct: whole, on cells; also called hCTR; hCT
T2 sequence (looked up): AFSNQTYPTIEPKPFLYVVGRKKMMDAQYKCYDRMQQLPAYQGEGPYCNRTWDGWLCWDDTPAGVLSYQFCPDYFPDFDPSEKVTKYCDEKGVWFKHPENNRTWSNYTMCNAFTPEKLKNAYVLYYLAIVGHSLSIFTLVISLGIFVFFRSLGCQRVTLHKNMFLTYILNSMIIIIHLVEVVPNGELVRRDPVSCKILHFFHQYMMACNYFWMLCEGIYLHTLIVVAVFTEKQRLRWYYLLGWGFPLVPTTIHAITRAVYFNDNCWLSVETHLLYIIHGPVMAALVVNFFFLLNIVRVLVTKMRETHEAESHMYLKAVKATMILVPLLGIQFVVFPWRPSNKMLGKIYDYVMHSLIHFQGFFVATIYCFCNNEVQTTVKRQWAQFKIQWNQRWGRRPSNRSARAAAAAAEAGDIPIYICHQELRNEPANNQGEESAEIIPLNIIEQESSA
Protocol: The resulting pellet was resuspended, homogenized and centrifuged (20.000 rpm, 15 min) in a buffer containing 20 mM Na-HEPES and 0.1 mM EDTA (pH 7.4, buffer 2). The resulting pellet was resuspended in buffer 2 and protein concentration was measured (BCA protein Assay, Pierce). The homogenate was kept cold during the whole procedure. The membranes were kept at −80° C. until use. The assay was performed in a 384 well Optiplate (PerkinElmer) in a total volume of 40 ul. Membranes were mixed with SPA beads. Final concentration of membranes 35 ng/μL final and SPA beads was 0.05 mg/well. Test-compounds were dissolved in DMSO and further diluted in assay buffer (50 mM Hepes, pH 7.4, 1 mM CaCl2, 5 mM MgCl₂, 0.1% OA and 0.02% Tween20). […] The final mixture was incubated with shaking at 400 rpm for 120 min at 25° C. prior to centrifugation (1500 rpm, 10 min). Samples were analyzed on TopCounter™ (Packard). The IC₅₀ was calculated using (one site binding competition analysis) GraphPad Prism5 as a measure of receptor affinity.
Membranes were prepared in the following way; the cells were rinsed with PBS and incubated with Versene for approximately 5 min before harvesting. The cells were flushed with PBS and the cell-suspension was centrifuged for 5 min at 1000 rpm. Cells were homogenized (Ultrathurrax) in a buffer containing 20 mM Na-HEPES and 10 mM EDTA (pH 7.4) and centrifuged at 20.000 rpm for 15 min. The resulting pellet was resuspended, homogenized and centrifuged (20.000 rpm, 15 min) in a buffer containing 20 mM Na-HEPES and 0.1 mM EDTA (pH 7.4, buffer 2). The resulting pellet was resuspended in buffer 2 and protein concentration was measured (BCA protein Assay, Pierce). The homogenate was kept cold during the whole procedure. The membranes were kept at −80° C. until use. Assay was performed in a 384 well Optiplate (PerkinElmer) in a total volume of 40 ul. Membranes were mixed with SPA beads.

rat calcitonin receptor [3] = target: T1, rat calcitonin receptor; test: SPA competition with 125I-calcitonin, membranes of BHK cells with rat calcitonin receptor (Assay VIII)
[4] = target: T3, rat amylin receptor (rat calcitonin receptor + rat RAMP 3) (rat, UniProt P32214 25-516; Q9JJ73 23-147); test: SPA competition with 125I-rat amylin, membranes of BHK cells with rat calcitonin receptor + rat RAMP3 (Assay VI)
T3 construct: whole, on cells; also called rAmylin-R; rat amylin 3(a) receptor
T3 sequence (looked up) 1: T1 sequence (looked up)
T3 sequence (looked up) 2: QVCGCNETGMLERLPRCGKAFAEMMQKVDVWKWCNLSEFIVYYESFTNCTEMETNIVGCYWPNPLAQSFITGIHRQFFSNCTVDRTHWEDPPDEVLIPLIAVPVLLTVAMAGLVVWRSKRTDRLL

Ratio rCT/rAmylin binding (rat calcitonin receptor [1]): 179
Ratio hCT/hAmylin binding [2]: 146
IC50 (rat calcitonin receptor [3]): 8.79 nM
IC50 [4]: 0.049 nM
B2: N^ε1-[2-[2-[2-[[(4S)-4-carboxy-4-(19-carboxynonadecanoylamino)butanoyl]amino]ethoxy]ethoxy]acetyl]-[Arg17,Pro21,Pro27,Pro29,Pro31]-h-amylin (peptide)
peptide: K([AEEA-γGlu-C20 diacid])CNTATCATQRLANFLRHSSPNFGAIPSPTPVGSNTY-NH2
modifications: disulfide 2-7; N-terminus assumed
SMILES: CC[C@H](C)[C@H](NC(=O)[C@H](C)NC(=O)CNC(=O)[C@H](Cc1ccccc1)NC(=O)[C@H](CC(N)=O)NC(=O)[C@@H]1CCCN1C(=O)[C@H](CO)NC(=O)[C@H](CO)NC(=O)[C@H](Cc1c[nH]cn1)NC(=O)[C@H](CCCNC(=N)N)NC(=O)[C@H](CC(C)C)NC(=O)[C@H](Cc1ccccc1)NC(=O)[C@H](CC(N)=O)NC(=O)[C@H](C)NC(=O)[C@H](CC(C)C)NC(=O)[C@H](CCCNC(=N)N)NC(=O)[C@H](CCC(N)=O)NC(=O)[C@@H](NC(=O)[C@H](C)NC(=O)[C@@H]1CSSC[C@H](NC(=O)[C@@H](N)CCCCNC(=O)COCCOCCNC(=O)CC[C@H](NC(=O)CCCCCCCCCCCCCCCCCCC(=O)O)C(=O)O)C(=O)N[C@@H](CC(N)=O)C(=O)N[C@@H]([C@@H](C)O)C(=O)N[C@@H](C)C(=O)N[C@@H]([C@@H](C)O)C(=O)N1)[C@@H](C)O)C(=O)N1CCC[C@H]1C(=O)N[C@@H](CO)C(=O)N1CCC[C@H]1C(=O)N[C@H](C(=O)N1CCC[C@H]1C(=O)N[C@H](C(=O)NCC(=O)N[C@@H](CO)C(=O)N[C@@H](CC(N)=O)C(=O)N[C@H](C(=O)N[C@@H](Cc1ccc(O)cc1)C(N)=O)[C@@H](C)O)C(C)C)[C@@H](C)O
notes: synthetic analogue of human amylin; also called compound 54

Ratio rCT/rAmylin binding (rat calcitonin receptor [1]): 77.2
Ratio hCT/hAmylin binding [2]: 51.8
IC50 (rat calcitonin receptor [3]): 6.25 nM
IC50 [4]: 0.081 nM
B3: N^ε1-[2-[2-[2-[[(4S)-4-carboxy-4-(19-carboxynonadecanoylamino)butanoyl]amino]ethoxy]ethoxy]acetyl]-[Arg17,Pro21,Pro27,Pro28,Pro34]-h-amylin (peptide)
peptide: K([AEEA-γGlu-C20 diacid])CNTATCATQRLANFLRHSSPNFGAIPPSTNVGPNTY-NH2
modifications: disulfide 2-7; N-terminus assumed
SMILES: CC[C@H](C)[C@H](NC(=O)[C@H](C)NC(=O)CNC(=O)[C@H](Cc1ccccc1)NC(=O)[C@H](CC(N)=O)NC(=O)[C@@H]1CCCN1C(=O)[C@H](CO)NC(=O)[C@H](CO)NC(=O)[C@H](Cc1c[nH]cn1)NC(=O)[C@H](CCCNC(=N)N)NC(=O)[C@H](CC(C)C)NC(=O)[C@H](Cc1ccccc1)NC(=O)[C@H](CC(N)=O)NC(=O)[C@H](C)NC(=O)[C@H](CC(C)C)NC(=O)[C@H](CCCNC(=N)N)NC(=O)[C@H](CCC(N)=O)NC(=O)[C@@H](NC(=O)[C@H](C)NC(=O)[C@@H]1CSSC[C@H](NC(=O)[C@@H](N)CCCCNC(=O)COCCOCCNC(=O)CC[C@H](NC(=O)CCCCCCCCCCCCCCCCCCC(=O)O)C(=O)O)C(=O)N[C@@H](CC(N)=O)C(=O)N[C@@H]([C@@H](C)O)C(=O)N[C@@H](C)C(=O)N[C@@H]([C@@H](C)O)C(=O)N1)[C@@H](C)O)C(=O)N1CCC[C@H]1C(=O)N1CCC[C@H]1C(=O)N[C@@H](CO)C(=O)N[C@H](C(=O)N[C@@H](CC(N)=O)C(=O)N[C@H](C(=O)NCC(=O)N1CCC[C@H]1C(=O)N[C@@H](CC(N)=O)C(=O)N[C@H](C(=O)N[C@@H](Cc1ccc(O)cc1)C(N)=O)[C@@H](C)O)C(C)C)[C@@H](C)O
notes: synthetic analogue of human amylin; also called compound 55

The next lines start with the binder.

B1: N^ε1-[2-[2-[2-[[(4S)-4-carboxy-4-(19-carboxynonadecanoylamino)butanoyl]amino]ethoxy]ethoxy]acetyl]-[Arg17,Pro21,Pro27,His34]-h-amylin (peptide)
peptide: K([AEEA-γGlu-C20 diacid])CNTATCATQRLANFLRHSSPNFGAIPSSTNVGHNTY-NH2
modifications: disulfide 2-7; N-terminus assumed
SMILES: CC[C@H](C)[C@H](NC(=O)[C@H](C)NC(=O)CNC(=O)[C@H](Cc1ccccc1)NC(=O)[C@H](CC(N)=O)NC(=O)[C@@H]1CCCN1C(=O)[C@H](CO)NC(=O)[C@H](CO)NC(=O)[C@H](Cc1c[nH]cn1)NC(=O)[C@H](CCCNC(=N)N)NC(=O)[C@H](CC(C)C)NC(=O)[C@H](Cc1ccccc1)NC(=O)[C@H](CC(N)=O)NC(=O)[C@H](C)NC(=O)[C@H](CC(C)C)NC(=O)[C@H](CCCNC(=N)N)NC(=O)[C@H](CCC(N)=O)NC(=O)[C@@H](NC(=O)[C@H](C)NC(=O)[C@@H]1CSSC[C@H](NC(=O)[C@@H](N)CCCCNC(=O)COCCOCCNC(=O)CC[C@H](NC(=O)CCCCCCCCCCCCCCCCCCC(=O)O)C(=O)O)C(=O)N[C@@H](CC(N)=O)C(=O)N[C@@H]([C@@H](C)O)C(=O)N[C@@H](C)C(=O)N[C@@H]([C@@H](C)O)C(=O)N1)[C@@H](C)O)C(=O)N1CCC[C@H]1C(=O)N[C@@H](CO)C(=O)N[C@@H](CO)C(=O)N[C@H](C(=O)N[C@@H](CC(N)=O)C(=O)N[C@H](C(=O)NCC(=O)N[C@@H](Cc1c[nH]cn1)C(=O)N[C@@H](CC(N)=O)C(=O)N[C@H](C(=O)N[C@@H](Cc1ccc(O)cc1)C(N)=O)[C@@H](C)O)C(C)C)[C@@H](C)O
notes: synthetic analogue of human amylin; also called compound 76
Ratio rCT/rAmylin binding (rat calcitonin receptor [1]): 56.8
Ratio hCT/hAmylin binding [2]: 80
IC50 (rat calcitonin receptor [3]): 38.9 nM
IC50 [4]: 0.686 nM

B4: N^ε1-[2-[2-[2-[[(4S)-4-carboxy-4-(19-carboxynonadecanoylamino)butanoyl]amino]ethoxy]ethoxy]acetyl]-[Arg17,Pro21,Pro27,Pro29,Pro34]-h-amylin (peptide)
peptide: K([AEEA-γGlu-C20 diacid])CNTATCATQRLANFLRHSSPNFGAIPSPTNVGPNTY-NH2
modifications: disulfide 2-7; N-terminus assumed
SMILES: CC[C@H](C)[C@H](NC(=O)[C@H](C)NC(=O)CNC(=O)[C@H](Cc1ccccc1)NC(=O)[C@H](CC(N)=O)NC(=O)[C@@H]1CCCN1C(=O)[C@H](CO)NC(=O)[C@H](CO)NC(=O)[C@H](Cc1c[nH]cn1)NC(=O)[C@H](CCCNC(=N)N)NC(=O)[C@H](CC(C)C)NC(=O)[C@H](Cc1ccccc1)NC(=O)[C@H](CC(N)=O)NC(=O)[C@H](C)NC(=O)[C@H](CC(C)C)NC(=O)[C@H](CCCNC(=N)N)NC(=O)[C@H](CCC(N)=O)NC(=O)[C@@H](NC(=O)[C@H](C)NC(=O)[C@@H]1CSSC[C@H](NC(=O)[C@@H](N)CCCCNC(=O)COCCOCCNC(=O)CC[C@H](NC(=O)CCCCCCCCCCCCCCCCCCC(=O)O)C(=O)O)C(=O)N[C@@H](CC(N)=O)C(=O)N[C@@H]([C@@H](C)O)C(=O)N[C@@H](C)C(=O)N[C@@H]([C@@H](C)O)C(=O)N1)[C@@H](C)O)C(=O)N1CCC[C@H]1C(=O)N[C@@H](CO)C(=O)N1CCC[C@H]1C(=O)N[C@H](C(=O)N[C@@H](CC(N)=O)C(=O)N[C@H](C(=O)NCC(=O)N1CCC[C@H]1C(=O)N[C@@H](CC(N)=O)C(=O)N[C@H](C(=O)N[C@@H](Cc1ccc(O)cc1)C(N)=O)[C@@H](C)O)C(C)C)[C@@H](C)O
notes: synthetic analogue of human amylin; also called compound 56
Ratio rCT/rAmylin binding (rat calcitonin receptor [1]): 131
Ratio hCT/hAmylin binding [2]: 42.6
IC50 (rat calcitonin receptor [3]): 5.26 nM
IC50 [4]: 0.04 nM

B5: N^ε1-[2-[2-[2-[[(4S)-4-carboxy-4-(19-carboxynonadecanoylamino)butanoyl]amino]ethoxy]ethoxy]acetyl]-[Arg17,Pro21,Pro27,Pro28,Pro31]-h-amylin (peptide)
peptide: K([AEEA-γGlu-C20 diacid])CNTATCATQRLANFLRHSSPNFGAIPPSTPVGSNTY-NH2
modifications: disulfide 2-7
notes: synthetic analogue of human amylin; also called compound 53
Ratio rCT/rAmylin binding (rat calcitonin receptor [1]): 130
Ratio hCT/hAmylin binding [2]: 104
IC50 (rat calcitonin receptor [3]): 10.9 nM
IC50 [4]: 0.084 nM
